Data from patent US20260146093A1 (DREN BIO MANAGEMENT, published 2026).
Positions count from the first letter of the chain named. Where two headings read alike, the source gives them in different places. Values belong to the binder of their own block, whether it stands above or below them.

Columns and labels:
[1] = target: T1, human Dectin-1 isoform A on HEK-Blue hDectin-1a cells (human, UniProt Q9BXN2 1-247); experiment: cell-based or functional assay
T1 sequence: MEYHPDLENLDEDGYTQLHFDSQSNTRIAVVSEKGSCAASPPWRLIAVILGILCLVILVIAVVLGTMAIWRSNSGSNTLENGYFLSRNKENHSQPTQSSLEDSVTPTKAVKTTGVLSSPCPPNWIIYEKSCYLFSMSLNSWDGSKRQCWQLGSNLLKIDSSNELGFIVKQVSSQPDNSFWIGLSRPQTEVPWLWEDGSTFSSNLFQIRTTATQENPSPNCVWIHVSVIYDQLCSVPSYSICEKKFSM

[2] = target: T2, human Trop-2 expressed on cells (A-431, NCI-N87, SKBR3, CHO-K1-hTrop2) (human, UniProt P09758 27-323); experiment: flow cytometry on A431 cells expressing hTrop-2
T2 sequence: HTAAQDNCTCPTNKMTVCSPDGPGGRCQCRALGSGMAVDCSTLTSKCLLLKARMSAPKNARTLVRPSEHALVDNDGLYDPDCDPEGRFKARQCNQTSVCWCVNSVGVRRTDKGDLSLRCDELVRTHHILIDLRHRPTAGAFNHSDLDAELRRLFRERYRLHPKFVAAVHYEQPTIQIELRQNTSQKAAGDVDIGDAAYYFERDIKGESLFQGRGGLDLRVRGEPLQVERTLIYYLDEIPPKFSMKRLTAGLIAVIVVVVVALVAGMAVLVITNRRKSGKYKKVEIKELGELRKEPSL

[3] = target: human Dectin-1 on HEK cells expressing hDectin-1 (human) (UniProt Q9BXN2); experiment: flow cytometry on HEK cells expressing hDectin-1 (sheet title: Binding to hDec1 on Hek)
[4] = target: T1, human Dectin-1 isoform A on HEK-Blue …; experiment: cell-based or functional assay; remark: listed apart in the source
Human Trop-2 ECD protein = target: T3, Human Trop-2 ECD protein (human, UniProt P09758 27-274); experiment: BLI, hTrop-2 ECD captured via anti-HIS Tag, bispecific antibody in solution (monovalent)
T3 construct: also called hTrop-2 ECD; not shown: HIS tag (captured on the biosensor via anti-HIS Tag)
T3 sequence: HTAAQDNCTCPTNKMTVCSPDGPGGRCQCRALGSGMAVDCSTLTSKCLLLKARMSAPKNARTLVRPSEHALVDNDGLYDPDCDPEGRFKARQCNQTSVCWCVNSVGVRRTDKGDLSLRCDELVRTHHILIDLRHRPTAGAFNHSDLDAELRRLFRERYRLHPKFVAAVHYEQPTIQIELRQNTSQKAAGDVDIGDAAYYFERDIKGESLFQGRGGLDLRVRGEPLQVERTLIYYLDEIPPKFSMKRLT
Description: Monovalent binding affinity was measured by biosensor (BLI). Human Trop-2 ECD protein was captured on biosensor via anti-HIS Tag. On and off rate binding was measured against bispecific antibodies with 1 arm binding to hTrop2 at varying concentrations. On rate and off rate measurements were fitted to generated KD values.
Monovalent binding affinity of each anti-Dectin-1 x anti-Trop-2 bispecific antibody to the human Trop-2 ECD was also measured by biosensor (BLI).

[5] = target: T2, human Trop-2 expressed on cells (A-431, …); experiment: cell-based or functional assay
[6] = target: T2, human Trop-2 expressed on cells (A-431, …); experiment: flow cytometry on CHO-K1-hTrop2 cells, fluorescent anti-human secondary antibody
Description: (§1) FIGS. 2A-2D show binding assays in which cells expressing human Trop-2 were incubated with anti-Dectin-1 x anti-Trop-2 bispecific antibodies with human IgG1 Fc (as indicated) or isotype control, and binding was measured by flow cytometry using a fluorescently labeled anti-human secondary antibody. Shown are binding of the indicated antibodies to human epidermoid carcinoma A-431 cells (FIG. 2A), human gastric carcinoma NCI-N87 cells (FIG. 2B), human breast cancer SKBR3 cells (FIG. 2C), or CHO-K1 cells expressing human Trop-2 (FIG. 2D).
(§2) Human cancer cell lines and CHO cells expressing human Trop-2 (CHO-K1-hTrop2 cells) were incubated with the anti-Dectin-1 x anti-Trop-2 bispecific antibodies, Trop-2 clones 15, 45, 76, 77, 63, 64, 65 and 123, or the hIgG1 isotype, followed by a fluorescent anti-human secondary antibody. The primary antibodies were used in an 8-point serial dose titration starting at 300 or 100 nM and diluted 1 to 3.

[7] = target: T2, human Trop-2 expressed on cells (A-431, …); experiment: flow cytometry on SKBR3 cells, fluorescent anti-human secondary antibody
Description: as §1, §2

[8] = target: T2, human Trop-2 expressed on cells (A-431, …); experiment: flow cytometry on A-431 cells, fluorescent anti-human secondary antibody
Description: as §1, §2

[9] = target: T2, human Trop-2 expressed on cells (A-431, …); experiment: flow cytometry on NCI-N87 cells, fluorescent anti-human secondary antibody
Description: as §1, §2

[10] = target: T1, human Dectin-1 isoform A on HEK-Blue …; experiment: cell-based or functional assay; remark: listed apart in the source
[11] = target: T2, human Trop-2 expressed on cells (A-431, …); experiment: flow cytometry on CHO-K1 cells expressing hTrop-2 (sheet title: Binding to Chok1 hTrop2)

B3: 2M24 × Trop-2 clone A hG1 (bispecific antibody, V domains shown)
VH 1: QVQLVQSGAEVKKPGASVKVSCKSSGYTFTDYYIHWVRQAPGQGLEWMGWINPNSGDTNYAQKFQGRITMTRDTSISTAYLELSRLRSDDTAVFYCARNSGSYSFGYWGQGTLVTVSS
VL 1: DIQMTQSPSSVSASVGDRVTITCRASQGISSWLAWYQQKPGKAPKLLIFGASSLQSGVPSRFSGSGSGTDFTLTVSSLQPEDFATYYCQQAYSFPFTFGPGTKVDIE
VH 2: QVQLQQSGSELKKPGASVKVSCKASGYTFTNYGMNWVKQAPGQGLKWMGWINTYTGEPTYTDDFKGRFAFSLDTSVSTAYLQISSLKADDTAVYFCARGGFGSSYWYFDVWGQGSLVTVSS
VL 2: DIQLTQSPSSLSASVGDRVSITCKASQDVSIAVAWYQQKPGKAPKLLIYSASYRYTGVPDRFSGSGSGTDFTLTISSLQPEDFAVYYCQQHYITPLTFGAGTKVEIK
notes: also called anti-Dectin-1 x anti-Trop-2 bispecific antibody
Dectin-1 pathway activation (SEAP secretion), HEK-Blue hDectin-1a cells in the presence of A-431 cells, EC50 [4]: 0.05 µg/mL | Dectin-1 pathway activation (SEAP secretion), HEK-Blue hDectin-1a cells in the presence of CHO-K1-hTrop2 cells, EC50 [4]: 0.06 µg/mL | Dectin-1 pathway activation (SEAP secretion), HEK-Blue hDectin-1a cells in the presence of NCI-N87 cells, EC50 [4]: 0.04 µg/mL | Dectin-1 pathway activation (SEAP secretion), HEK-Blue hDectin-1a cells in the presence of SKBR3 cells, EC50 [4]: 0.04 µg/mL | Kd (Human Trop-2 ECD protein): 4.12 nM | koff (Human Trop-2 ECD protein): 0.000891 s⁻¹ | kon (Human Trop-2 ECD protein): 217000 M⁻¹ s⁻¹ | Induction of phagocytosis in vitro of A-431 cells by human macrophages, EC50 [5]: 0.31 nM | Induction of phagocytosis in vitro of NCI-N87 cells by human macrophages, EC50 [5]: 0.2 nM | Induction of phagocytosis in vitro of SKBR3 cells by human macrophages, EC50 [5]: 0.507 nM | EC50 [6]: 3.78 nM | EC50 [7]: 18.5 nM | EC50 [8]: 6.12 nM | EC50 [9]: 11.7 nM

B5: 2M24 × Trop-2 clone C hG1 (bispecific antibody, V domains shown)
VH 1: B3 VH 1
VL 1: B3 VL 1
VH 2: QVQLVQSGSELKKPGASVKLSCKASGYTFTSYGMNWVRQAPGQGLEWMGWINTNTGNPTYAQGFTGRFVFSLDTSVSTAYLQISSLKAEDTAVYYCARGYNWNDGDFDYWGQGTLVTVSS
VL 2: AIQMTQSPSSLSPSVGDRVTITCRASQGIRNDLGWYQQKPGKAPKLLIFAASSLQSGVPSRFSGSGSGTDFTLTISNLQPEDFATYYCLQNYNYPLTFGGGTKVEIK
notes: Full chains appear only in embodiments and are not tied to the tested molecule; also called anti-Dectin-1 x anti-Trop-2 bispecific antibody; DR02B.77
Dectin-1 pathway activation (SEAP secretion), HEK-Blue hDectin-1a cells in the presence of A-431 cells, EC50 [4]: 0.08 µg/mL | Dectin-1 pathway activation (SEAP secretion), HEK-Blue hDectin-1a cells in the presence of CHO-K1-hTrop2 cells, EC50 [4]: 0.05 µg/mL | Dectin-1 pathway activation (SEAP secretion), HEK-Blue hDectin-1a cells in the presence of NCI-N87 cells, EC50 [4]: 0.06 µg/mL | Dectin-1 pathway activation (SEAP secretion), HEK-Blue hDectin-1a cells in the presence of SKBR3 cells, EC50 [4]: 0.05 µg/mL | Kd (Human Trop-2 ECD protein): 12.9 nM | koff (Human Trop-2 ECD protein): 0.00181 s⁻¹ | kon (Human Trop-2 ECD protein): 140000 M⁻¹ s⁻¹ | Induction of phagocytosis in vitro of A-431 cells by human macrophages, EC50 [5]: 0.45 nM | Induction of phagocytosis in vitro of NCI-N87 cells by human macrophages, EC50 [5]: 0.132 nM | Induction of phagocytosis in vitro of SKBR3 cells by human macrophages, EC50 [5]: 0.319 nM | EC50 [6]: 7.25 nM | EC50 [7]: 28 nM | EC50 [8]: 53.2 nM | EC50 [9]: 39.5 nM

B6: Dectin-1 2M24.124 x Trop-2 clone C hIgG1 (bispecific antibody)
anti-Dectin-1 heavy chain: B3 VH 1 with S24A, I34M, S55E, Q65E, L81M, F94Y, S100T, S102A, Q110C
anti-Dectin-1 light chain: B3 VL 1 with A43C, F49Y, S53D, V75I, S93G, E107K
anti-Trop-2 heavy chain: B5 VH 2
anti-Trop-2 light chain: B5 VL 2
notes: member of group m9; also called 2M24.124xTrop-2 clone C hG1; disulfide-engineered Fab-format bispecific, clone C
EC50 of SEAP secretion by the hDectin-1 reporter cells (hDec1 Reporter Assay; the Trop-2-expressing cell line is not named) [10]: 0.69 nM | EC50 (read off the curve) [11]: ~9 nM

B7: 2M24 × Trop-2 clone B hG1 (bispecific antibody, V domains shown)
VH 1: B3 VH 1
VL 1: B3 VL 1
VH 2: QVQLQESGPGLVKPSGTLSLTCAVSGGSISSSNWWSWVRQPPGKGLEWIGEIYHDGSTDYFPSLKSRVTISVDKSKNQFSLKLSSVTAADTAVYYCARDNWGFDYWGQGTLVTVSS
VL 2: DIVLTQSPGTLSLSPGERATLSCRASQSVSSSYLAWYQQKPGQAPRLLISGASSRATGIPDRFSGSGSGTDFTLTISRLEPEDFAVYYCQQYGSSHRTFGQGTKVEIK
notes: Full chains appear only in embodiments and are not tied to the tested molecule; also called anti-Dectin-1 x anti-Trop-2 bispecific antibody; DR02B.65
Dectin-1 pathway activation (SEAP secretion), HEK-Blue hDectin-1a cells in the presence of A-431 cells, EC50 [4]: 0.04 µg/mL | Dectin-1 pathway activation (SEAP secretion), HEK-Blue hDectin-1a cells in the presence of CHO-K1-hTrop2 cells, EC50 [4]: 0.07 µg/mL | Dectin-1 pathway activation (SEAP secretion), HEK-Blue hDectin-1a cells in the presence of NCI-N87 cells, EC50 [4]: 0.03 µg/mL | Dectin-1 pathway activation (SEAP secretion), HEK-Blue hDectin-1a cells in the presence of SKBR3 cells, EC50 [4]: 0.04 µg/mL | Kd (Human Trop-2 ECD protein): 9.55 nM | koff (Human Trop-2 ECD protein): 0.000475 s⁻¹ | kon (Human Trop-2 ECD protein): 49700 M⁻¹ s⁻¹ | Induction of phagocytosis in vitro of A-431 cells by human macrophages, EC50 [5]: 0.34 nM | Induction of phagocytosis in vitro of NCI-N87 cells by human macrophages, EC50 [5]: 1.12 nM | Induction of phagocytosis in vitro of SKBR3 cells by human macrophages, EC50 [5]: 0.269 nM | EC50 [6]: 4.32 nM | EC50 [7]: 24.2 nM | EC50 [8]: 7.56 nM | EC50 [9]: 17.9 nM

Next, values leading:

EC50 of SEAP secretion by the hDectin-1 reporter cells (hDec1 Reporter Assay; the Trop-2-expressing cell line is not named) [1]: 1.46 nM | binding result [2]: binds | EC50 (read off the curve) [3]: 4 nM
B1: Dectin-1 2M24.131 x Trop-2 clone A hIgG1 (bispecific antibody)
anti-Dectin-1 scFv-Fc arm: QVQLVQSGAEVKKPGASVKVSCKASGYTFTDYYMHWVRQAPGQGLEWMGWINPNEGDTNYAQKFEGRITMTRDTSISTAYMELSRLRSDDTAVYYCARNTGAYSFGYWGCGTLVTVSSGGGGSGGGGSGGGGSGGGGSDIQMTQSPSSVSASVGDRVTITCRASQGISSWLAWYQQKPGKCPKLLIYGASDLQSGVPSRFSGSGSGTDFTLTISSLQPEDFATYYCQQAYGFPFTFGPGTKVDIKEPK
anti-Trop-2 heavy chain: B3 VH 2
anti-Trop-2 light chain: B3 VL 2
notes: member of group m8; also called 2M24.131xTrop-2 clone A hG1; scFv-format anti-Dectin-1 x anti-Trop-2 bispecific, clone A

EC50 of SEAP secretion by the hDectin-1 reporter cells (hDec1 Reporter Assay; the Trop-2-expressing cell line is not named) [1]: 0.91 nM | binding result [2]: binds | EC50 (read off the curve) [3]: 3 nM
B2: Dectin-1 2M24.131 x Trop-2 clone B hIgG1 (bispecific antibody)
anti-Dectin-1 scFv-Fc arm: B1 anti-Dectin-1 scFv-Fc arm
anti-Trop-2 heavy chain: B7 VH 2
anti-Trop-2 light chain: B7 VL 2
notes: member of group m8; also called 2M24.131xTrop-2 clone B hG1; scFv-format anti-Dectin-1 x anti-Trop-2 bispecific, clone B

EC50 of SEAP secretion by the hDectin-1 reporter cells (hDec1 Reporter Assay; the Trop-2-expressing cell line is not named) [1]: 1.49 nM | binding result [2]: binds | EC50 (read off the curve) [3]: 3 nM
B4: Dectin-1 2M24.131 x Trop-2 clone C hIgG1 (bispecific antibody)
anti-Dectin-1 scFv-Fc arm: B1 anti-Dectin-1 scFv-Fc arm
anti-Trop-2 heavy chain: B5 VH 2
anti-Trop-2 light chain: B5 VL 2
notes: member of group m8; also called 2M24.131xTrop-2 clone C hG1; scFv-format anti-Dectin-1 x anti-Trop-2 bispecific, clone C
